Each block holds one binder with its values, some of them ahead of it.
Experiments:
[1] = molecular target: T1, MSNW10, recombinant full length human MSLN (human, UniProt Q13421 296-598); experiment: SPR, additional experiments
T1 construct: also called MSNW10.002; FL-MSLN

[2] = molecular target: T2, 14 AA stub (a.a. 290-303 of SEQ ID NO: 247) (human); experiment: SPR, mAb captured, peptide injected
T2 peptide: GYLVLDLSMQEALS
Experimental: (§1) The binding was assessed by SPR. Briefly, GAH-Fc was used to capture mAbs on C4 sensor chip followed by antigen injection starting at 30 nM (14 amino acid stub), 100 nM (10-13 amino acid stubs), or 1000 nM (7-9 amino acid stubs) progressing in a 3-fold dilution series in single cycle kinetics mode. HBSP+0.01% BSA was used in the assay.

[3] = molecular target: T3, 13 AA stub (a.a. 291-303 of SEQ ID NO: 247) (human); experiment: SPR, mAb captured, peptide injected
T3 peptide: YLVLDLSMQEALS
Experimental: as §1

[4] = molecular target: T4, 12 AA stub region peptide LVLDLSMQEALS (human); experiment: SPR, mAb captured, peptide injected
T4 construct: free N-terminus; also called 12 AA Peptide
T4 peptide: LVLDLSMQEALS
Experimental: as §1

[5] = molecular target: T5, 11 AA stub (a.a. 293-303 of SEQ ID NO: 247) (human); experiment: SPR, mAb captured, peptide injected
T5 peptide: VLDLSMQEALS
Experimental: as §1

[6] = molecular target: T6, 10 AA stub (a.a. 294-303 of SEQ ID NO: 247) (human); experiment: SPR, mAb captured, peptide injected
T6 peptide: LDLSMQEALS
Experimental: as §1

[7] = molecular target: T7, 9 AA stub (a.a. 295-303 of SEQ ID NO: 247) (human); experiment: SPR, mAb captured, peptide injected
T7 peptide: DLSMQEALS
Experimental: as §1

[8] = molecular target: T8, 8 AA stub (a.a. 296-303 of SEQ ID NO: 247) (human); experiment: SPR, mAb captured, peptide injected
T8 construct: also called 8 AA Peptide; peptide of the last 8 C-terminal amino acids
T8 peptide: LSMQEALS
Experimental: as §1

[9] = molecular target: T9, 7 AA stub (a.a. 297-303 of SEQ ID NO: 247) (human); experiment: SPR, mAb captured, peptide injected
T9 peptide: SMQEALS
Experimental: as §1

[10] = molecular target: T10, MSNW11, recombinant soluble (shed) MSLN lacking the C-terminal 7 AAs (human, UniProt Q13421 296-591); experiment: H838 cell binding with shed MSLN (MSNW11) added
T10 construct: domain: soluble MSLN lacking the C-terminal 7 AAs; also called MSNW11.002; soluble MSLN
T10 sequence (Q13421 other isoform, or with tags, fused parts or gaps limits assumed): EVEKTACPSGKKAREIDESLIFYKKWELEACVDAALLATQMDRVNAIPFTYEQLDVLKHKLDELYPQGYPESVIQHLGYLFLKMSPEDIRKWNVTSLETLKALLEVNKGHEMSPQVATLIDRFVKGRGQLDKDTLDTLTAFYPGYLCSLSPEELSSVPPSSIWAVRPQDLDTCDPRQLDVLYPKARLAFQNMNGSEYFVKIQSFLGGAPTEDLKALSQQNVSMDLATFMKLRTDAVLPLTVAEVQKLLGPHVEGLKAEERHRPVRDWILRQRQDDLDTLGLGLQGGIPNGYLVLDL
Source text: Table 16 lists the immunization campaigns, antigens used, and number of clones returned at each stage of screening. Clones from which antibody sequences were successfully recovered were first screened for binding to recombinant full length human MSLN (MSNW10) and H838 cells that express MSLN on the cell surface. Binders were further screened for binding to cells in the presence of recombinant soluble MSLN lacking the C-terminal 7 AAs (MSNW11). This form of recombinant MSLN represented the product of cleavage at the closest cleavage site to the C-terminus known at the time, therefore, it theoretically represented the longest form of shed MSLN. The final concentration of shed MSLN in the assays was 100 nM.

[11] = molecular target: T11, human MSLN on the cell surface (human, UniProt Q13421 296-598); experiment: high content imaging, surface staining of OVCAR8 cells
T11 construct: on cells stands the processed GPI-anchored 40 kDa MSLN; also called membrane MSLN; MSLN on H838, OVCAR-8 (OVCAR8), OVCAR-8 K1/C8, SK-OV-3 cells
T11 sequence (Q13421 other isoform, or with tags, fused parts or gaps limits assumed): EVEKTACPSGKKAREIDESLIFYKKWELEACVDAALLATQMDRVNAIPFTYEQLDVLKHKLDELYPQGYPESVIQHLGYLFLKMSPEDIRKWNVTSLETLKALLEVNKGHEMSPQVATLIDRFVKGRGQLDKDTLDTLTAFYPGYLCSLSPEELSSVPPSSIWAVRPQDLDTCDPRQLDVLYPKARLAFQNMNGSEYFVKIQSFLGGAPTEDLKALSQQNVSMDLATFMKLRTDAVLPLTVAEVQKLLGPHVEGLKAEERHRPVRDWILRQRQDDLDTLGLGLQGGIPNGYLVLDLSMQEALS
Experimental: OVCAR8 cells were cultured in RPMI 1640 medium supplemented with 10% FCS, 1% L-glutamine and 1% Gentamycin and seeded in Greiner CELLSTAR plate one day before experiment. 24 h after seeding, antibody mixture was prepared by diluting MSLN and control antibodies in Table 21 in full media containing CellMask™ Deep Red Plasma Membrane Stain (ThermoFisher, C10046) in 12 concentrations each with 3 folds dilution starting from 20 μg/ml and 20 μl of which were added directly to the cells in 20 μl. Antibodies were allowed for binding to the cell surface for 2h inside the incubator (37°) C. and the surface bound antibodies were fixed for 15 min at RT by directly adding 30 ul of 10% Formaldehyde (04018-1, Polysciences). Afterwards residual Formaldehyde was removed by washing the cells twice with PBS and the primary antibodies were stained with secondary antibodies (Alexa Fluor 488 goat anti-human IgG, Invitrogen, A11013) complemented with Hoechst 33342 (H3570, ThermoFisher) and HCS CellMask™ Deep Red Stain (ThermoFisher, H32721) in PBS for 1h at RT. After removing unbound antibodies and other dyes by washing the cells 3 times with PBS cells were imaged on the CellVoyager 7000 (Yokogawa, Tokyo, Japan) using a 40×/0.95 objective. Of each well, 9 fields were imaged. Image analysis was performed with Acapella (PerkinElmer, Waltham, MA, USA) and the results stored in Phaedra (OpenAnalytics, Antwerp, Belgium). Data analysis was done in R (www.r-project.org).
The data was then fitted using the four-parameter logistic using least-squares regression, keeping the lower boundary fixed at 0.

[12] = molecular target: T12, CD3 epsilon on human T-cells (human, UniProt P07766 23-207); experiment: cell-based or functional assay
T12 sequence (P07766 23-207 limits assumed): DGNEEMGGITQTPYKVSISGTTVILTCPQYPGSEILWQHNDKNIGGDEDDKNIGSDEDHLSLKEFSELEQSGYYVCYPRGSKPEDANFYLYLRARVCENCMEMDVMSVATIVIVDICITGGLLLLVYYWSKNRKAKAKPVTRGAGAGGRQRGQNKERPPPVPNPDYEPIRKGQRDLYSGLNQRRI

[13] = molecular target: T13, MSLN with Met593Val on cells homozygous for SNP rs1135210 (SNP G|G) (human, UniProt Q13421 296-598); experiment: binding to homozygous SNP-positive cells
T13 construct: also called homozygous SNP-positive cells; BxPC3, NCI-H322
T13 sequence (Q13421 other isoform, or with tags, fused parts or gaps M593V M593V limits assumed): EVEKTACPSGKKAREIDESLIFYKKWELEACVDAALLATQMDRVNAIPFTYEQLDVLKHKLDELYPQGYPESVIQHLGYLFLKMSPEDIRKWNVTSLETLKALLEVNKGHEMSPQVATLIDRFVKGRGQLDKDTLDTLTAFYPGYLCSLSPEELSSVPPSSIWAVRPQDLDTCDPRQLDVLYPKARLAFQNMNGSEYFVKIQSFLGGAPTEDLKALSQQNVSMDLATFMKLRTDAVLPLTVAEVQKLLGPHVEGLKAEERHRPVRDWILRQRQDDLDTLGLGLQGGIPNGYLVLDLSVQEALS

[14] = molecular target: T12, CD3 epsilon on human T-cells; experiment: cell-based or functional assay; remark: listed apart in the source
[15] = molecular target: T12, CD3 epsilon on human T-cells; experiment: T-cell binding assay, FIG. 15

T1 sequence (Q13421 other isoform, or with tags, fused parts or gaps limits assumed): as the sequence (Q13421 other isoform, or with tags, fused parts or gaps M593V M593V limits assumed) above, with V298M counted along it

B3: MNC3B55 (bispecific antibody)
scFv: EVQLVESGGGLVKPGGSLRLSCAASGFTFSRYNMNWVRQAPGKGLEWVSSISTSSNYIYYADSVKGRFTFSRDNAKNSLDLQMSGLRAEDTAIYYCTRGWGPFDYWGQGTLVTVSSGGSEGKSSGSGSESKSTGGSDIQMTQSPSSLSASVGDRVTITCRARQSIGTAIHWYQQKPGKAPKLLIKYASESISGVPSRFSGSGSGTDFTLTISSLQPEDFATYYCQQSGSWPYTFGQGTKLEIK
VH: QVQLVESGPGQVKPSQTLSLTCAISGDSVSSNSAAWNWIRQSPSRGLEWLGRTYYRSKWYNDYAVSVKSRITINPDTSKNQFSLQLNSVTPEDTAVYYCARRDYSSGGFDYWGQGTTVTVSS
VL: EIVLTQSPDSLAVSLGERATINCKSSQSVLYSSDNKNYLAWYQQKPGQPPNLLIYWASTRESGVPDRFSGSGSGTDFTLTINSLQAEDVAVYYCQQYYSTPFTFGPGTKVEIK
cytotoxicity EC50, NCI-H838 cells, pan T-cells 5:1 E:T, 48 hours [12]: 0.027 nM

B4: MNC3B130 (bispecific antibody)
scFv: DIQMTQSPSSLSASVGDRVTITCRARQSIGTAIHWYQQKPGKAPKLLIKYASESISGVPSRFSGSGSGTDFTLTISSLQPEDFATYYCQQSGSWPYTFGQGTKLEIKGGSEGKSSGSGSESKSTGGSEVQLVESGGGLVKPGGSLRLSCAASGFTFSRYNMNWVRQAPGKGLEWVSSISTSSNYIYYADSVKGRFTFSRDNAKNSLDLQMSGLRAEDTAIYYCTRGWGPFDYWGQGTLVTVSS
VH: B3 VH
VL: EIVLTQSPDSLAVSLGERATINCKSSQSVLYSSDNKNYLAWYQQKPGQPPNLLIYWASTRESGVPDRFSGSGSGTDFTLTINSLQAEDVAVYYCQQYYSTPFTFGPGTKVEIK
notes: MSNB457 Fab x CD3W245 LH scFv; Fc chain 1 T350V/L351Y/F405A/Y407V, Fc chain 2 T350V/T366L/K392/T394W; also called mrMSLN-MSNB457 x W245LH alternative heterodimerization scaffold
cytotoxicity EC50, NCI-H838 cells, pan T-cells 5:1 E:T, 48 hours [12]: 0.15 nM
binding result [13]: no binding

B5: MNC3B187 (bispecific antibody)
scFv: B3 scFv
VH: B3 VH
VL: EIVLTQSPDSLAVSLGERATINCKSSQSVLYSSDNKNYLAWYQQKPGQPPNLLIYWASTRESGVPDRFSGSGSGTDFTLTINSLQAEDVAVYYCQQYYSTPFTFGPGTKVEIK
notes: Bipod: MSNB457 Fab x CD3W245 HL scFv-Fc; also called CD3W245 HL containing Bipod
AC90 [nM], cytotoxicity, 1:1 E:T, 72 hours [14]: 0.016 nM
Max. Activity, cytotoxicity, 1:1 E:T, 72 hours [14]: 88%
qAC50 [nM], cytotoxicity, 1:1 E:T, 72 hours [14]: 0.0035 nM
EC50 [15]: 2 nM

Next, values leading:

Kd [1]: 0.3 nM
Kd [2]: 0.563 nM
Kd [3]: 1.08 nM
Kd [4]: 2.04 nM
binding result [5]: no binding (tested: 100 nM)
binding result [6]: no binding (tested: 100 nM)
binding result [7]: no binding (tested: 1000 nM)
binding result [8]: no binding (tested: 1000 nM)
binding result [9]: no binding (tested: 1000 nM)
binding result [10]: no binding (tested: 100 nM)
B1: MSLNB591 (antibody, V domains shown)
VH: QVQLQQSGPGLVKPSQTLSLTCGISGDSVSSSSVAWNWIRQSPSRGLEWLGRTYYRSKWYNDYAISVRSRVTINPDTSKNQFSLQLNSVTPEDTAVYYCSRGVVGALDYWGQGTLVTVSS
VL: DIVMTQSPLSLTVTPGEPASISCRSSQSLLFTNGYNSLDWYLQKPGQSPQFLIYLVSNRASGVPDRFSGSGSGTDFTLKISRVEAEDVGVYYCMQALRTPYTFGQGTKVDIK
notes: mAb; also called MSNB591

Kd [1]: 3.4 nM
Kd [2]: 1.99 nM
Kd [3]: 5.99 nM
Kd [4]: 4.06 nM
binding result [5]: no binding (tested: 100 nM)
binding result [6]: no binding (tested: 100 nM)
binding result [7]: no binding (tested: 1000 nM)
binding result [8]: no binding (tested: 1000 nM)
binding result [9]: no binding (tested: 1000 nM)
binding result [10]: no binding (tested: 100 nM)
IC50 [11]: 0.166 mg/L
Maximum Value (arbitrary units) [11]: 1.6e+07 arbitrary units
B2: MSLNB569 (antibody, V domains shown)
VH: QVQLQQSGPGLVKPSQTLSLTCAISGDSVSSTRAAWNWIRQSPSRGLEWLGRTYYRSKWYNDYTVSVKSRITINPDTSKNQFSLHLNSVTPEDSAVYFCARGNVGRVDFWGQGTLVTVSS
VL: EIVMTQSPLSLPVTPGEPASISCRSSQSLLHSDGYNYLDWYLQKPGQSPQLLIYLGSNRASGVPDRFSGSGSDTDFTLKISRVEAEDVGVYYCMQGLRTPLTFGPGTKVDIK
notes: mAb; also called MSLNB569.001; MSNB569
